Experimental data reported in article doi:10.1101/226712.

Target: ClpXP (ClpX6P14) with Cy3-labeled ClpPQ48C, immobilized through biotinylated ClpX6 (Escherichia coli) (UniProt P0A6H1)
Test: single-molecule TIRF fluorescence with alternating laser excitation

Row | total dwell time (Δτ, bound and processed) | Substance
1 | 7.3 s | Titin-I27 V13P with the C-terminal ssrA tag, Cy5-labeled at Cys (domain or fragment)
2 | 7.5 s | Titin-I27 wild-type with the C-terminal ssrA tag, Cy5-labeled at Cys (domain or fragment)
